US20130089497A1 (Genentech, published 2013)

How the values were obtained:
[1] = target: T1, cynomolgus FcRH5 on stably transfected SVT2 cells (cynomologous monkey); assay: Scatchard analysis: 0.5 nM 125I-labeled antibody competed with the unlabeled antibody (50 to 0.02 nM) on SVT2.cyFcRH5 cells, 4 h at 4 C; St. Error 0.064
T1 construct: also called cyno FcRH5; cynoFcRH5
T1 chain: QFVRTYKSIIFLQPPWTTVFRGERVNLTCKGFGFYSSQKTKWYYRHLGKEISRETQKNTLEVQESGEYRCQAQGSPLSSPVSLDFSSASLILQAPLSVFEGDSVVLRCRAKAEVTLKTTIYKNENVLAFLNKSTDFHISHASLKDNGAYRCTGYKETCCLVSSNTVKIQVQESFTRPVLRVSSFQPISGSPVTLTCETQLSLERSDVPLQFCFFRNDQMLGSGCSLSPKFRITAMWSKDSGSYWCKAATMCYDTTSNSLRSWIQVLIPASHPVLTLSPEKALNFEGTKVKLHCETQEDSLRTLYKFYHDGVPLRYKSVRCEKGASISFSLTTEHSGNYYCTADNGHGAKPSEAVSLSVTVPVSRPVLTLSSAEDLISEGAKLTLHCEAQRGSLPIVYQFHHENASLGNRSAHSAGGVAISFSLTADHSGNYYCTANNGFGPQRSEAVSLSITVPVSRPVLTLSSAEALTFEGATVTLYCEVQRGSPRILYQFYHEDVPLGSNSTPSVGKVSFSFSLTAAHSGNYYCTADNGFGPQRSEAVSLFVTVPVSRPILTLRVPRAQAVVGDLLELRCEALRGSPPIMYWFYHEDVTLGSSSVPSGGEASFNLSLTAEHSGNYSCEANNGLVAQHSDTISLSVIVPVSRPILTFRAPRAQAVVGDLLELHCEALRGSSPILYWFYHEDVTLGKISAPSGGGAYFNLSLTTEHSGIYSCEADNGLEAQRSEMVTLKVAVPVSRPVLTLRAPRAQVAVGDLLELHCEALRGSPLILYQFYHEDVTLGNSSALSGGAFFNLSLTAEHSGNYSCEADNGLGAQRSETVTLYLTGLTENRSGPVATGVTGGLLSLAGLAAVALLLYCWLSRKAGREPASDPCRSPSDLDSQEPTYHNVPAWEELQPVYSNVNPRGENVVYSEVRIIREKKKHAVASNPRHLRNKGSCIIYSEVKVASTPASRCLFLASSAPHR
Experimental: To further determine binding of the FcRH5 murine antibodies and IgG clones, binding of iodinated IgG variants to OPM2 cells expressing human FcRH5 and SVT2 cells expressing cynomologous FcRH5, Scatchard analysis was performed (Table 9A).
For Scatchard analysis, 0.5 nM I¹²⁵ labeled murine or IgG clone anti-FcRH5 was competed against unlabeled murine or IgG clone anti-FcRH5, respectively, ranging from 50 to 0.02 nM (12 step 1:2 serial dilution) in the presence of a transfected OPM2 line stably expressing human-FcRH5 and a transfected SVT2 line stably expressing cynomologous-FcRH5. After a four hour incubation at 4° C., cells were washed and cell pellet counts were read by a gamma counter (1470 WIZARD Automatic Gamma Counter; Perkin Elmer, Walthem, Mass.). All points were done in triplicate and counted for 10 minutes. The average CPM was used for Kd calculation using the New Ligand (Genentech, South San Francisco, Calif.) program.

[2] = target: T2, gD tagged human FcRH1 on SVT2 cells (human, UniProt Q96LA6 17-429); assay: FACS, SVT2.MSCV.gD.FcRH1 cells, PE secondary antibody
T2 construct: whole, on cells; also called huFcRH1; not shown: gD tag
T2 sequence (looked up): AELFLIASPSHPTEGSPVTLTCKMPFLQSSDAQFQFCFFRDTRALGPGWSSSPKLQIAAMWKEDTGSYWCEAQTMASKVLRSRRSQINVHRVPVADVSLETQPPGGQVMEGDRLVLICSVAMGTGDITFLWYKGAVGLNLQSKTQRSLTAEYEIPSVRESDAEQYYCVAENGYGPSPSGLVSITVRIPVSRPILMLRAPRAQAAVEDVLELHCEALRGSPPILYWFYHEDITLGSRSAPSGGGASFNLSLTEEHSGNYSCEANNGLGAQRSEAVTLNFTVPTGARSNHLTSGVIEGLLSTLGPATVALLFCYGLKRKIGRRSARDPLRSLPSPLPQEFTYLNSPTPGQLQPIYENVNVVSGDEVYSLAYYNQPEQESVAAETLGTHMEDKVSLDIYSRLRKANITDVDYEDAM

[3] = target: T3, gD tagged human FcRH6 on SVT2 cells (human, UniProt Q6DN72 20-434); assay: FACS, SVT2.MSCV.gD.FcRH6 cells, PE secondary antibody
T3 construct: whole, on cells; also called huFcRH6; not shown: gD tag; the construct for this FcRH is not described
T3 sequence (looked up): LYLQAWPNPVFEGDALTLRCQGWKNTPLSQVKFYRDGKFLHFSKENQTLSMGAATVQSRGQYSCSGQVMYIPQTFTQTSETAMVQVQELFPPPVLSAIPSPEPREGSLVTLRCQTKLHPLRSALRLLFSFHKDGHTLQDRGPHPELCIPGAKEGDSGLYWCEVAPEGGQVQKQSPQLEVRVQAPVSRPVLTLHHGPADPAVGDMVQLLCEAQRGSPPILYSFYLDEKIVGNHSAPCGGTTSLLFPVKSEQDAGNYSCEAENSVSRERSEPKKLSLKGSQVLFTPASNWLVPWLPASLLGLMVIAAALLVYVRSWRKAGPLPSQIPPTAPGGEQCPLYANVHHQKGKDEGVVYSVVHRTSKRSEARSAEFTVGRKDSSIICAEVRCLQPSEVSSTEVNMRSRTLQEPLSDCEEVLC

B1: murine monoclonal antibody anti-FcRH5-13G9 (antibody, V domains shown)
VH: EVQLVQSGPELKKPGETVKISCKASGYTFTNYGMNWVKQAPGKGLKWMGWVNTYTGEPTYTDDFKGRFAFSVETSASTVFLQINNLKNEDTATYFCARRSIPYYYAMDYWGQGTSLT
VL: DIVMTQSQKIMSTSVGDRVNVTCKASQNVGSNVAWYHQKPGQSPKALIYSASYRYSGVPDRFTGSGSGTDFTLTISNVQSEDLAEYFCQQYKTWTFGGGTKLEIKR
notes: Whole murine IgG from hybridoma; also called 13G9.1.1; mu13G9
[1]
  Kd: 0.54 nM
[2]
  binding result: no binding (tested: 1.0 ug per about 10^6 cells (p-1120))
[3]
  binding result: no binding (tested: 1.0 ug per about 10^6 cells (p-1120))
